Measured values taken from publication PMC8516981.

How the values were obtained:
[1] = target: α-synuclein (αS) fibrils (human) (UniProt P37840); test: microfluidic diffusional sizing; in solution; DnaJB1 or Apg2 alone with αS fibrils (concentrations as monomer equivalents); 50 mM HEPES-KOH pH 7.5, 50 mM KCl, 5 mM MgCl2, 2 mM DTT
[2] = target: α-synuclein (αS) fibrils (human) (UniProt P37840); test: microfluidic diffusional sizing; in solution; labelled Hsc70 with αS fibrils (concentrations as monomer equivalents); 50 mM HEPES-KOH pH 7.5, 50 mM KCl, 5 mM MgCl2, 2 mM DTT; in the presence of ATP
[3] = target: α-synuclein (αS) fibrils (human) (UniProt P37840); test: microfluidic diffusional sizing; in solution; labelled Hsc70 with αS fibrils (concentrations as monomer equivalents); 50 mM HEPES-KOH pH 7.5, 50 mM KCl, 5 mM MgCl2, 2 mM DTT; in the presence of ATP and DnaJB1

Sequence of heat shock cognate Hsc70 (HSPA8) (P11142 whole entry): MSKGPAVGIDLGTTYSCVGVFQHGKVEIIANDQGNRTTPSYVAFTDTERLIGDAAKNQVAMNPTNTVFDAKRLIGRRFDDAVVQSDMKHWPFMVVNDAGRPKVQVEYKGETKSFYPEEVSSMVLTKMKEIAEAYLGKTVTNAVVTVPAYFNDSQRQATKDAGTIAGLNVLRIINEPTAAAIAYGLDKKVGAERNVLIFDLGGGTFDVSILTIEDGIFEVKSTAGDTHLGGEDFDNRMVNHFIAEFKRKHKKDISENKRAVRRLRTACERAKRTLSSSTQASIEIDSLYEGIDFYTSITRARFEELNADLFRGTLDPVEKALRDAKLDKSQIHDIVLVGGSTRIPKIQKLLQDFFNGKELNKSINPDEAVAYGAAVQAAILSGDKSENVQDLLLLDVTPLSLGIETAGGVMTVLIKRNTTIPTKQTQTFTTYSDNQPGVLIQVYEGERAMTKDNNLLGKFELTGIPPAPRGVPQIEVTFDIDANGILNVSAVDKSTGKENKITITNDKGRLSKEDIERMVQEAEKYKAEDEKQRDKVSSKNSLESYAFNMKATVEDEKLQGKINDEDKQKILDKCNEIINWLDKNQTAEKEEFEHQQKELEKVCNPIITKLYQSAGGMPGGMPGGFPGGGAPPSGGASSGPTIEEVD
Sequence of DnaJB1 (Hsp40 class B J-protein) (P25685 whole entry): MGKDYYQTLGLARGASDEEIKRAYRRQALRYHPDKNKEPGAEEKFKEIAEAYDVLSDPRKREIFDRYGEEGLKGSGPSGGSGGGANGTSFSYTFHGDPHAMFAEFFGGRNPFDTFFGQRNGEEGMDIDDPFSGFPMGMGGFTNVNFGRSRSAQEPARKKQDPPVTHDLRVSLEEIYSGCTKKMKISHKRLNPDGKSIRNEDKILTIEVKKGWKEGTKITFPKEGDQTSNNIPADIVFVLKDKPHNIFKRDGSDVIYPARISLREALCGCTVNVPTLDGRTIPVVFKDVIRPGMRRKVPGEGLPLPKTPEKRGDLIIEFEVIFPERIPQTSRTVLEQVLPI

| Substance | Kd [1] [nM] | Kd [2] [nM] | stoichiometry N (αS monomer units per Hsc70 molecule) [2] | Kd [3] [nM] |
| --- | --- | --- | --- | --- |
| DnaJB1 (Hsp40 class B J-protein) (from UniProt P25685 1-340) (natural protein) | 246 | – | – | – |
| heat shock cognate Hsc70 (HSPA8) (from UniProt P11142 1-646) (natural protein) | – | 139 | 5.3 | 47.5 |
